Test results reported in the supplement of paper PMC5998384.

Key:
HeLa Kyoto [1] = assay: solubility in G1/S (NP-40 vs SDS abundance) (log2 ratio); higher = more soluble; conditions: cell cycle stage: G1/S
HeLa Kyoto [2] = assay: melting temperature (median over replicates), in situ; higher = more thermally stable
HeLa Kyoto [3] = assay: solubility change mitosis vs G1/S (difference of NP-40 vs SDS log2 ratios) (log2 ratio difference); higher = more soluble in mitosis
HeLa Kyoto [4] = assay: thermal stability score vs G1/S (z-score of summed log2 fold changes over temperatures); higher = more thermally stable than in G1/S
[5] = cell cycle stage: early G1 (4.5 h after nocodazole release)
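For melting temperature (median over replicates), in situ in this document: HeLa Kyoto cells synchronized by double thymidine or nocodazole block, proteins quantified by TMT10plex mass spectrometry, three independent biological replicates.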
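For solubility change mitosis vs G1/S (difference of NP-40 vs SDS log2 ratios) in this document: synchronized HeLa Kyoto cells (double thymidine block for G1/S, nocodazole release for mitosis), protein amounts in NP-40 versus SDS lysates quantified by mass spectrometry, three biological replicates.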
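For solubility in G1/S (NP-40 vs SDS abundance) in this document: HeLa Kyoto cells arrested at G1/S by double thymidine block, proteins quantified by TMT10plex mass spectrometry in mild NP-40 versus SDS extracts, three biological replicates.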
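For thermal stability score vs G1/S (z-score of summed log2 fold changes over temperatures) in this document: synchronized HeLa Kyoto cells, proteins quantified by TMT10plex mass spectrometry, three biological replicates, mitosis taken 0.5 h after nocodazole release, G1/S directly after double thymidine block.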

Sequence | solubility in G1/S (log2) (HeLa Kyoto [1]) | melting temperature (HeLa Kyoto [2]; cell cycle stage: G1/S) [°C] | melting temperature (HeLa Kyoto [2]; cell cycle stage: mitosis) [°C] | solubility change mitosis (log2) (HeLa Kyoto [3]) | thermal stability score (HeLa Kyoto [4]; [5]) | thermal stability score (HeLa Kyoto [4]; cell cycle stage: mitosis)
MDTEGFGELLQQAEQLAAETEGISELPHVERNLQEIQQAGERLRSRTLTRTSQETADVKASVLLGSRGLDISHISQRLESLSAATTFEPLEPVKDTDIQGFLKNEKDNALLSAIEESRKRTFGMAEEYHRESMLVEWEQVKQRILHTLLASGEDALDFTQESEPSYISDVGPPGRSSLDNIEMAYARQIYIYNEKIVNGHLQPNLVDLCASVAELDDKSISDMWTMVKQMTDVLLTPATDALKNRSSVEVRMEFVRQALAYLEQSYKNYTLVTVFGNLHQAQLGGVPGTYQLVRSFLNIKLPAPLPGLQDGEVEGHPVWALIYYCMRCGDLLAASQVVNRAQHQLGEFKTWFQEYMNSKDRRLSPATENKLRLHYRRALRNNTDPYKRAVYCIIGRCDVTDNQSEVADKTEDYLWLKLNQVCFDDDGTSSPQDRLTLSQFQKQLLEDYGESHFTVNQQPFLYFQVLFLTAQFEAAVAFLFRMERLRCHAVHVALVLFELKLLLKSSGQSAQLLSHEPGDPPCLRRLNFVRLLMLYTRKFESTDPREALQYFYFLRDEKDSQGENMFLRCVSELVIESREFDMILGKLENDGSRKPGVIDKFTSDTKPIINKVASVAENKGLFEEAAKLYDLAKNADKVLELMNKLLSPVVPQISAPQSNKERLKNMALSIAERYRAQGISANKFVDSTFYLLLDLITFFDEYHSGHIDRAFDIIERLKLVPLNQESVEERVAAFRNFSDEIRHNLSEVLLATMNILFTQFKRLKGTSPSSSSRPQRVIEDRDSQLRSQARTLITFAGMIPYRTSGDTNARLVQMEVLMN [NUP93] | -0.149 | 51.9 | 48.3 | 0.117 | -3.26 | -4.55
MANPKEKTAMCLVNELARFNRVQPQYKLLNERGPAHSKMFSVQLSLGEQTWESEGSSIKKAQQAVANKALTESTLPKPVQKPPKSNVNNNPGSITPTVELNGLAMKRGEPAIYRPLDPKPFPNYRANYNFRGMYNQRYHCPVPKIFYVQLTVGNNEFFGEGKTRQAARHNAAMKALQALQNEPIPERSPQNGESGKDVDDDKDANKSEISLVFEIALKRNMPVSFEVIKESGPPHMKSFVTRVSVGEFSAEGEGNSKKLSKKRAATTVLQELKKLPPLPVVEKPKLFFKKRPKTIVKAGPEYGQGMNPISRLAQIQQAKKEKEPDYVLLSERGMPRRREFVMQVKVGNEVATGTGPNKKIAKKNAAEAMLLQLGYKASTNLQDQLEKTGENKGWSGPKPGFPEPTNNTPKGILHLSPDVYQEMEASRHKVISGTTLGYLSPKDMNQPSSSFFSISPTSNSSATIARELLMNGTSSTAEAIGLKGSSPTPPCSPVQPSKQLEYLARIQGFQAALSALKQFSEQGLDPIDGAMNIEKGSLEKQAKHLREKADNNQAPPGSIAQDCKKSNSAV [STAU2] | -0.227 | 49.1 | 50.3 | 0.169 | 0.426 | 1.69
MMLGTEGGEGFVVKVRGLPWSCSADEVQRFFSDCKIQNGAQGIRFIYTREGRPSGEAFVELESEDEVKLALKKDRETMGHRYVEVFKSNNVEMDWVLKHTGPNSPDTANDGFVRLRGLPFGCSKEEIVQFFSGLEIVPNGITLPVDFQGRSTGEAFVQFASQEIAEKALKKHKERIGHRYIEIFKSSRAEVRTHYDPPRKLMAMQRPGPYDRPGAGRGYNSIGRGAGFERMRRGAYGGGYGGYDDYNGYNDGYGFGSDRFGRDLNYCFSGMSDHRYGDGGSTFQSTTGHCVHMRGLPYRATENDIYNFFSPLNPVRVHIEIGPDGRVTGEADVEFATHEDAVAAMSKDKANMQHRYVELFLNSTAGASGGAYEHRYVELFLNSTAGASGGAYGSQMMGGMGLSNQSSYGGPASQQLSGGYGGGYGGQSSMSGYDQVLQENSSDFQSNIA [HNRNPH1] | 0.047 | 47.5 | 48.2 | -0.00635 | 3.39 | 8.7
MKDSENKGASSPDMEPSYGGGLFDMVKGGAGRLFSNLKDNLKDTLKDTSSRVIQSVTSYTKGDLDFTYVTSRIIVMSFPLDNVDIGFRNQVDDIRSFLDSRHLDHYTVYNLSPKSYRTAKFHSRVSECSWPIRQAPSLHNLFAVCRNMYNWLLQNPKNVCVVHCLDGRAASSILVGAMFIFCNLYSTPGPAIRLLYAKRPGIGLSPSHRRYLGYMCDLLADKPYRPHFKPLTIKSITVSPIPFFNKQRNGCRPYCDVLIGETKIYSTCTDFERMKEYRVQDGKIFIPLNITVQGDVVVSMYHLRSTIGSRLQAKVTNTQIFQLQFHTGFIPLDTTVLKFTKPELDACDVPEKYPQLFQVTLDVELQPHDKVIDLTPPWEHYCTKDVNPSILFSSHQEHQDTLALGGQAPIDIPPDNPRHYGQSGFFASLCWQDQKSEKSFCEEDHAALVNQESEQSDDELLTLSSPHGNANGDKPHGVKKPSKKQQEPAAPPPPEDVDLLGLEGSAMSNSFSPPAAPPTNSELLSDLFGGGGAAGPTQAGQSGVEDVFHPSGPASTQSTPRRSATSTSASPTLRVGEGATFDPFGAPSKPSGQDLLGSFLNTSSASSDPFLQPTRSPSPTVHASSTPAVNIQPDVSGGWDWHAKPGGFGMGSKSAATSPTGSSHGTPTHQSKPQTLDPFADLGTLGSSSFASKPTTPTGLGGGFPPLSSPQKASPQPMGGGWQQGGAYNWQQPQPKPQPSMPHSSPQNRPNYNVSFSAMPGGQNERGKGSSNLEGKQKAADFEDLLSGQGFNAHKDKKGPRTIAEMRKEEMAKEMDPEKLKILEWIEGKERNIRALLSTMHTVLWAGETKWKPVGMADLVTPEQVKKVYRKAVLVVHPDKATGQPYEQYAKMIFMELNDAWSEFENQGQKPLY [DNAJC6] | 0.0466 | 51.6 | 51.7 | -0.112 | -0.0779 | -0.888
MNTAPSRPSPTRRDPYGFGDSRDSRRDRSPIRGSPRREPRDGRNGRDARDSRDIRDPRDLRDHRHSRDLRDHRDSRSVRDVRDVRDLRDFRDLRDSRDFRDQRDPMYDRYRDMRDSRDPMYRREGSYDRYLRMDDYCRRKDDSYFDRYRDSFDGRGPPGPESQSRAKERLKREERRREELYRQYFEEIQRRFDAERPVDCSVIVVNKQTKDYAESVGRKVRDLGMVVDLIFLNTEVSLSQALEDVSRGGSPFAIVITQQHQIHRSCTVNIMFGTPQEHRNMPQADAMVLVARNYERYKNECREKEREEIARQAAKMADEAILQERERGGPEEGVRGGHPPAIQSLINLLADNRYLTAEETDKIINYLRERKERLMRSSTDSLPGPISRQPLGATSGASLKTQPSSQPLQSGQVLPSATPTPSAPPTSQQELQAKILSLFNSGTVTANSSSASPSVAAGNTPNQNFSTAANSQPQQRSQASGNQPPSILGQGGSAQNMGPRPGAPSQGLFGQPSSRLAPASNMTSQRPVSSTGINFDNPSVQKALDTLIQSGPALSHLVSQTTAQMGQPQAPMGSYQRHY [NCOA5] | -0.619 | 49.9 | 49.1 | 0.489 | 0.658 | 1.68
MAAALGASGGAGAGDDDFDQFDKPGAERSWRRRAADEDWDSELEDDLLGEDLLSGKKNQSDLSDEELNDDLLQSDNEDEENFSSQGVTISLNATSGMVTSFELSDNTNDQSGEQESEYEQEQGEDELVYHKSDGSELYTQEYPEEGQYEGHEAELTEDQIEYVEEPEEEQLYTDEVLDIEINEPLDEFTGGMETLELQKDIKEESDEEEEDDEESGRLRFKTERKEGTIIRLSDVTRERRNIPETLELSAEAKAALLEFEERERQHKQGRYSSRRGGRRGGPLMCRGVGDQRRESTERGRMKDHRPALLPTQPPVVPQAPPPPPPPPQQQPIRSLFQPQPLQPLLPVQHPHHPSPPQGMHMPPQLETPRMMMTPPPVTPQQPKNIHINPHFKGTVVTPVQVPLLPVPSQPRPAVGPQRFPGPPEFPQHTPGPVPNSFSQPPRLPLQDQWRAPPPPQDRDPFFLGVSGEPRFPSHLFLEQRSPPPPPPPPTLLNSSHPVPTQSPLPFTQPGPAFNQQGQQPVFPRERPVRPALQPPGPVGILHFSQPGSATTRPFIPPRQPFLPGPGQPFLPTHTQPNLQGPLHPPLPPPHQPQPQQPQQQPPPQHQPPHQPPHQPPPQHQPPPQHPPQHPPQHQHHHHHHHLSVPPPPLMPMSQPQFRPHVQTAQPQASSSRMQCPQRQGLRHNTTSQNVSKRPMQQMQPTAPRNSNLRELPIAPSHVIEMSSSRCSATPSAQVKPIVSASPPSRAVAGSRSSQGKTEVKVKPASPVAQPKEEAKTETEFPDEDEETRLYRLKIEEQKRLREEILKQKELRRQQQAGARKKELLERLAQQQQQLYAPPPPAEQEEQALSPSPTNGNPLLPFPGAQVRQNVKNRLLVKNQDVSISNVQPKTSNFVPSSANMQYQGQQMKALKHLRQTRTVPQSQTQPLHKVLPIKPADVEEPAVPQTPRVASIQGRPQDTKPGVKRTVTHRTNSGGGDGPHISSKVRVIKLSGGGGESDGFFHPEGQPQRLPQPPEVGPQPARKVTLTRGGLQQPPHLPAGPHAHSPVPPGIKSIQGIHPAKKAIMHGRGRGVAGPMGRGRLMPNKQNLRVVECKPQPCVVSVEGLSSSTTDAQLKSLLMSVGPIQSLQMLPQQRKAIAKFKEPAHALAFQQKFHRHMIDLSHINVALIVE [RBM33] | -0.022 | 48.8 | 50.8 | -0.145 | 0.706 | 2.36
MIFPVARYALRWLRRPEDRAFSRAAMEMALRGVRKVLCVAEKNDAAKGIADLLSNGRMRRREGLSKFNKIYEFDYHLYGQNVTMVMTSVSGHLLAHDFQMQFRKWQSCNPLVLFEAEIEKYCPENFVDIKKTLERETRQCQALVIWTDCDREGENIGFEIIHVCKAVKPNLQVLRARFSEITPHAVRTACENLTEPDQRVSDAVDVRQELDLRIGAAFTRFQTLRLQRIFPEVLAEQLISYGSCQFPTLGFVVERFKAIQAFVPEIFHRIKVTHDHKDGIVEFNWKRHRLFNHTACLVLYQLCVEDPMATVVEVRSKPKSKWRPQALDTVELEKLASRKLRINAKETMRIAEKLYTQGYISYPRTETNIFPRDLNLTVLVEQQTPDPRWGAFAQSILERGGPTPRNGNKSDQAHPPIHPTKYTNNLQGDEQRLYEFIVRHFLACCSQDAQGQETTVEIDIAQERFVAHGLMILARNYLDVYPYDHWSDKILPVYEQGSHFQPSTVEMVDGETSPPKLLTEADLIALMEKHGIGTDATHAEHIETIKARMYVGLTPDKRFLPGHLGMGLVEGYDSMGYEMSKPDLRAELEADLKLICDGKKDKFVVLRQQVQKYKQVFIEAVAKAKKLDEALAQYFGNGTELAQQEDIYPAMPEPIRKCPQCNKDMVLKTKKNGGFYLSCMGFPECRSAVWLPDSVLEASRDSSVCPVCQPHPVYRLKLKFKRGSLPPTMPLEFVCCIGGCDDTLREILDLRFSGGPPRASQPSGRLQANQSLNRMDNSQHPQPADSRQTGSSKALAQTLPPPTAAGESNSVTCNCGQEAVLLTVRKEGPNRGRQFFKCNGGSCNFFLWADSPNPGAGGPPALAYRPLGASLGCPPGPGIHLGGFGNPGDGSGSGTSCLCSQPSVTRTVQKDGPNKGRQFHTCAKPREQQCGFFQWVDENTAPGTSGAPSWTGDRGRTLESEARSKRPRASSSDMGSTAKKPRKCSLCHQPGHTRPFCPQNR [TOP3A] | -0.336 | 46.9 | 48.4 | 0.0865 | 1.18 | 1.85
MAMQAAKRANIRLPPEVNRILYIRNLPYKITAEEMYDIFGKYGPIRQIRVGNTPETRGTAYVVYEDIFDAKNACDHLSGFNVCNRYLVVLYYNANRAFQKMDTKKKEEQLKLLKEKYGINTDPPK [SF3B6] | -0.381 | 51.1 | 51.2 | 0.618 | -2.41 | -2.34
MLSRAVCGTSRQLAPVLGYLGSRQKHSLPDLPYDYGALEPHINAQIMQLHHSKHHAAYVNNLNVTEEKYQEALAKGDVTAQIALQPALKFNGGGHINHSIFWTNLSPNGGGEPKGELLEAIKRDFGSFDKFKEKLTAASVGVQGSGWGWLGFNKERGHLQIAACPNQDPLQGTTGLIPLLGIDVWEHAYYLQYKNVRPDYLKAIWNVINWENVTERYMACKK [SOD2] | 0.614 | 58.3 | 56.8 | 0.133 | -0.479 | -0.233
